We go through 18 molecules from paper PMC10349056, “The combined action of the intracellular regions regulates FGFR2 kinase activity” (Communications Biology, 2023).

Where no end group is shown, it is not given here.

In experiment [1] the target is JM-KD^pY1 (mono-phosphorylated juxtamembrane region plus kinase domain) (UniProt P21802). Description: MST; Atto488-labeled protein titrated with the same unlabeled protein, 25 °C; apparent dimerization constant, dimer to monomers.
The target is the same in experiment [2]. The experiment is described as follows: SPR; apparent dimerization constant of JM-KD^pY1 (Supplementary Fig. 2c). (In general: In SPR one partner is held on a chip, and binding of the other changes the refractive index at the surface.)
The target of experiment [3] is CT^C1 (C-terminal tail of FGFR2IIIb C1 isoform, GST cleaved) (UniProt P21802). The experiment is described as follows: SPR; BIAcore T100, CT^C1 immobilised on CM4 chip by amine coupling to about 200 RU, analytes at 30 µl/min.
The target is the same in experiment [4]. The experiment is described as follows: MST; CT^C1 labeled with Atto488, titrated with unlabeled JM-KD^pY1 or KD^pY1, 25 °C.
Experiment [5] addresses FGFR2^C3 tagged with GFP or RFP. Description: FRET or BRET; FLIM of GFP- and RFP-tagged FGFR2 co-expressed in serum-starved HEK293T cells, fixed.
Experiment [6] deals with KD^pY1 (mono-phosphorylated FGFR2IIIb kinase domain) (UniProt P21802). Description: MST; Atto488-labeled protein titrated with the same unlabeled protein, 25 °C; apparent dimerization constant, dimer to monomers.
For experiment [7], the target named is JM (juxtamembrane region of FGFR2IIIb, as used in MST and NMR). The experiment is described as follows: MST; JM labeled with Atto 488, serial dilutions of KD titrated, 25 °C, 20 mM HEPES, 150 mM NaCl, 1 mM TCEP, 0.01% Tween 20, pH 7.5; apparent.
The target of experiment [8] is FGFR2^C2 tagged with GFP or RFP. Description: FRET or BRET; FLIM of GFP- and RFP-tagged FGFR2 co-expressed in serum-starved HEK293T cells, fixed. A general note: Bioluminescence resonance energy transfer reports proximity on the nanometre scale.
In experiment [9] the target is FGFR2 C-terminal tail of the C1 isoform, untagged (the last 58 residues of FGFR2) (UniProt P21802). Description: SPR; untagged CT immobilised on a CM4 chip by amine coupling (about 200 RU); JM-KD proteins of different phosphorylation level injected at 30 µl/min, then buffer wash; steady-state fitting.
The target in experiment [10] is FGFR2 juxtamembrane region (407-462), labelled with Atto 488 (UniProt P21802). The experiment is described as follows: MST; JM labelled with Atto 488, serial dilutions of KD titrated, 25 °C; 20 mM HEPES, 150 mM NaCl, 1 mM TCEP, 0.01% Tween 20, pH 7.5; the text calls the constant of KD^pY1 apparent (Kd,app).
The target of experiment [11] is T1, FGFR2 C-terminal tail of the C1 isoform, untagged, labelled with Atto 488 (UniProt P21802-3 765-822, Atto 488 dye label).
T1 construct: FGFR2 (IIIb, C1 isoform) C-terminal tail, the last 58 residues of FGFR2; numbers count on: FGFR2IIIb (C1 isoform, 822 residues); also called CT^C1; source: E. coli BL21(DE3), purified as GST fusion, GST removed with thrombin
T1 sequence (looked up): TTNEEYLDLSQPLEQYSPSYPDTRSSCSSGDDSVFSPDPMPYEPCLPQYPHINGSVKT
The experiment is described as follows: MST; CT labelled with Atto 488 (100 nM), 2-fold serial dilutions of JM peptides, 25 °C; 20 mM HEPES, 150 mM NaCl, 1 mM TCEP, 0.01% Tween 20, pH 7.5. As to conditions: both partners purified.

Experiment [12] deals with T2, FGFR2 kinase domain, mono-phosphorylated on Y657 (UniProt P21802-3 465-764, Y467F (worked out from the printed order of phosphorylation) | Y587F (worked …, phosphotyrosine at 657)).
T2 construct: FGFR2 (IIIb isoform) kinase domain, residues 465-764; numbers count on: FGFR2IIIb (C1 isoform, 822 residues); also called KD^pY1; source: E. coli BL21(DE3), purified (Talon, Superdex 75)
The experiment is described as follows: MST; synthetic JM or CT peptides in serial dilution against KD^pY1, 25 °C; 20 mM HEPES, 150 mM NaCl, 1 mM TCEP, 0.01% Tween 20, pH 7.5. As to conditions: both partners purified.

Experiment [13] concerns the target T2, FGFR2 kinase domain, …. The description is as above. As to conditions: both partners purified. This is another data set of the same source.
For experiment [14], the target named is JM (juxtamembrane region of FGFR2IIIb, as used in MST and NMR). Description: MST; JM labeled with Atto 488, two-fold serial dilution of CT titrated.
The target in experiment [15] is T3, FGFR2 JM-KD, phosphorylation state pY5 (UniProt P21802-3 414-764, Y734F (worked out from the printed order of phosphorylation), phosphotyrosine at 657, 587, 467, 589 and 658).
T3 construct: numbers count on: FGFR2IIIb (C1 isoform, 822 residues); also called JM-KD^pY5; source: E. coli BL21(DE3), purified (Talon, Superdex 75)
The experiment is described as follows: SPR; untagged CT immobilised on a CM4 chip by amine coupling (about 200 RU); JM-KD proteins of different phosphorylation level injected at 30 µl/min, then buffer wash; steady-state fitting. As to conditions: both partners purified.

The target of experiment [16] is T4, FGFR2 JM-KD, phosphorylation state pY4 (UniProt P21802-3 414-764, Y658F (worked out from the printed order of phosphorylation) | Y734F (worked …, phosphotyrosine at 657, 587, 467 and 589)).
T4 construct: numbers count on: FGFR2IIIb (C1 isoform, 822 residues); also called JM-KD^pY4; source: E. coli BL21(DE3), purified (Talon, Superdex 75)
The experiment is described as above. The note with it: both partners purified.

For experiment [17], the target named is T5, FGFR2 JM-KD wild type, phosphorylated (UniProt P21802-3 414-764, phosphotyrosines (phosphorylated wild type; sites not listed)).
T5 construct: numbers count on: FGFR2IIIb (C1 isoform, 822 residues); also called JM-KD^pWT; JM-KD^pYWT; source: E. coli BL21(DE3), purified (Talon, Superdex 75)
Described as above. The note with it: both partners purified.

The target of experiment [18] is T6, FGFR2 JM-KD Y657/658F (UniProt P21802-3 414-764, Y657/658F | Y657/658F).
T6 construct: numbers count on: FGFR2IIIb (C1 isoform, 822 residues); source: E. coli BL21(DE3), purified (Talon, Superdex 75)
The description is as above. As to conditions: both partners purified.

Experiment [19] has as its target T7, FGFR2 JM-KD, phosphorylation state pY3 (UniProt P21802-3 414-764, Y589F (worked out from the printed order of phosphorylation) | Y658F (worked …, phosphotyrosine at 657, 587 and 467)).
T7 construct: numbers count on: FGFR2IIIb (C1 isoform, 822 residues); also called JM-KD^pY3; source: E. coli BL21(DE3), purified (Talon, Superdex 75)
Described as above. The note with it: both partners purified.

The target in experiment [20] is T8, FGFR2 JM-KD, phosphorylation state pY2 (UniProt P21802-3 414-764, Y467F (worked out from the printed order of phosphorylation) | Y589F (worked …, phosphotyrosine at 657 and 587)).
T8 construct: numbers count on: FGFR2IIIb (C1 isoform, 822 residues); also called JM-KD^pY2; source: E. coli BL21(DE3), purified (Talon, Superdex 75)
The experiment is described as above. The note with it: both partners purified.

Experiment [21] addresses T9, FGFR2 juxtamembrane region (407-462), labelled with Atto 488 (UniProt P21802-3 407-462, Atto 488 dye label).
T9 construct: FGFR2 (IIIb isoform) juxtamembrane region, residues 407-462; numbers count on: FGFR2IIIb (C1 isoform, 822 residues); also called JM; 407Juxtamembrane region462; source: synthetic peptide, bought: Genscript
T9 sequence (looked up): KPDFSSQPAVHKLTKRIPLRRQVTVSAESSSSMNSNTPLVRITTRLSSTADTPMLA
Description: MST; JM labelled with Atto488 (100 nM), 2-fold serial dilutions of CT peptides, 25 °C; 20 mM HEPES, 150 mM NaCl, 1 mM TCEP, 0.01% Tween 20, pH 7.5. The note with it: both partners purified.

Experiment [22] deals with KD^pY1 (mono-phosphorylated FGFR2IIIb kinase domain) (UniProt P21802). Description: MST; peptide fragments of CT against KD^pY1 (Supplementary Table 4, Supplementary Fig. 3a).

T2 sequence (P21802 464-763 Y466F/Y586F/Y588F/Y657F/Y733F): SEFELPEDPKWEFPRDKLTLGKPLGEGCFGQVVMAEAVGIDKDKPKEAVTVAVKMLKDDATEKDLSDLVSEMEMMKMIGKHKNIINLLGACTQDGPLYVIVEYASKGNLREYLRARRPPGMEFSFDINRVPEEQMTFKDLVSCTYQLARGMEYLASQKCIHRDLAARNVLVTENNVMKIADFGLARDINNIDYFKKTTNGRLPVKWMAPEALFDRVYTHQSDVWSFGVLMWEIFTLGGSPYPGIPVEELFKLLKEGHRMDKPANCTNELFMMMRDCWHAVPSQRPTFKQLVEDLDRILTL
T5 sequence (P21802 413-763): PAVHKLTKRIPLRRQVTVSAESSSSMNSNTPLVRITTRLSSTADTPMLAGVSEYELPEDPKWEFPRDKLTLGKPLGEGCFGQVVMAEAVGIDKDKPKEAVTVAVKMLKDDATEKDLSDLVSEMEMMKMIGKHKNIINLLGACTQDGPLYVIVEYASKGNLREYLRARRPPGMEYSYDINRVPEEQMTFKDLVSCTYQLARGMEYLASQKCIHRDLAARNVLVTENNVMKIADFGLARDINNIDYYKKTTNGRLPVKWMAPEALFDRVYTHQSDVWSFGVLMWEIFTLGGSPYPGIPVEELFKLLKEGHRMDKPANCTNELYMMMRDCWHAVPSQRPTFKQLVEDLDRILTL
T7 sequence (P21802 413-763 Y588F/Y657F/Y733F): as the sequence (P21802 413-763) above, with Y176F, Y245F, Y321F counted along it
T8 sequence (P21802 413-763 Y466F/Y588F/Y657F/Y733F): as the sequence (P21802 413-763) above, with Y54F, Y176F, Y245F, Y321F counted along it
T4 sequence (P21802 413-763 Y657F/Y733F): as the sequence (P21802 413-763) above, with Y245F, Y321F counted along it
T3 sequence (P21802 413-763 Y733F): as the sequence (P21802 413-763) above, with Y321F counted along it
T6 sequence (P21802 other isoform, or with tags, fused parts or gaps Y657/658F | Y657/658F | Y657/658F | Y657/658F): as the sequence (P21802 413-763) above, with Y244F, Y245F counted along it

For “JM-KD^pY1 (mono-phosphorylated juxtamembrane region plus kinase domain) (from UniProt P21802-3 414-764) (domain or fragment)”, the Kd in experiment [1] is 3.46 µM; in [2], 3.07 µM; in experiment [3], 0.16 µM; in experiment [4], 0.304 µM. Molecule “FGFR2^C3 tagged with GFP or RFP (receptor)” showed a percent of molecules showing interaction in experiment [5] of 26%. Turning to “KD^pY1 (mono-phosphorylated FGFR2IIIb kinase domain) (from UniProt P21802-3 465-764) (domain or fragment)”, the values for the Kd in experiment [6], in experiment [7] and in [4] were 0.112 µM, 2.51 µM and 3.75 µM, respectively. Molecule “FGFR2^C2 tagged with GFP or RFP (receptor)” gave a percent of molecules showing dimerization above the control threshold in experiment [8] of 16%. Molecule “FGFR2 JM-KD, phosphorylation state pY6 (from UniProt P21802-3 414-764) (domain or fragment)” had a Kd in experiment [9] of 4.63 µM. For “FGFR2 kinase domain, phosphorylation state pY6 (from UniProt P21802-3 465-764) (domain or fragment)”, the Kd in experiment [10] amounted to 20.5 µM.

B1: JM peptide 449-462 (peptide)
peptide: TTRLSSTADTPMLA
notes: numbers count on: FGFR2IIIb (C1 isoform, 822 residues); source: synthetic peptide, bought: Genscript
For the molecule B1, the Kd in experiment [11] was found to be 25.4 ± 3.26 µM.

B2: JM peptide 407-420 (peptide)
peptide: KPDFSSQPAVHKLT
notes: FGFR2 (IIIb isoform) juxtamembrane region, residues 407-420; numbers count on: FGFR2IIIb (C1 isoform, 822 residues); source: synthetic peptide, bought: Genscript
For the molecule B2, the results for the Kd in [11] and in experiment [12] were 200 ± 13.7 µM and 105 ± 7.37 µM, respectively.

B3: JM peptide 429-442 (peptide)
peptide: VTVSAESSSSMNSN
notes: as for B1
For B3, the Kd in experiment [11] is 3.23 ± 0.326 µM.

B4: JM peptide 439-452 (peptide)
peptide: MNSNTPLVRITTRL
notes: FGFR2 (IIIb isoform) juxtamembrane region, residues 439-452; numbers count on: FGFR2IIIb (C1 isoform, 822 residues); source: synthetic peptide, bought: Genscript
B4 came in with a Kd in [11] of 372 ± 30.3 µM.

B5: CT peptide 808-822 (peptide)
peptide: PCLPQYPHINGSVKT
notes: FGFR2 (IIIb, C1 isoform) C-terminal tail, residues 808-822; numbers count on: FGFR2IIIb (C1 isoform, 822 residues); also called CT^808-822; source: synthetic peptide, bought: Genscript
In turn, B5 yielded a Kd in experiment [13] of 257 ± 39.2 µM.

B6: CT^C1 (C-terminal tail of FGFR2IIIb C1 isoform, GST cleaved) (domain or fragment)
chain: TTNEEYLDLSQPLEQYSPSYPDTRSSCSSGDDSVFSPDPMPYEPCLPQYPHINGSVKT
modifications: cysteine pairing not given here; also: Atto488 label (MST), place not given here, 15N-labeled (NMR)
Turning to B6, in experiment [14], the Kd came to 20.2 µM.

B7: FGFR2 C-terminal tail of the C1 isoform, untagged (the last 58 residues of FGFR2) (domain or fragment, UniProt P21802-3 765-822, looked up)
chain: TTNEEYLDLSQPLEQYSPSYPDTRSSCSSGDDSVFSPDPMPYEPCLPQYPHINGSVKT
notes: FGFR2 (IIIb, C1 isoform) C-terminal tail, the last 58 residues of FGFR2; numbers count on: FGFR2IIIb (C1 isoform, 822 residues); Unlabelled form: immobilised by amine coupling in SPR; added as 'CT' in the steady-state FRET; also called CT^C1; source: E. coli BL21(DE3), purified as GST fusion, GST removed with thrombin
Turning to B7, the Kd was determined as 1.6 µM in experiment [15]; 7.87 µM in experiment [16]; 2.31 µM in experiment [17]; 5.68 µM in [18]; 3.27 µM in experiment [19]; 4.08 µM in experiment [20].

B8: JM peptide 414-430 (peptide)
peptide: PAVHKLTKRIPLRRQVT
notes: as for B1
For B8, the Kd in [12] was 36.8 ± 6.23 µM.

B9: CT peptide 801-815 (peptide)
peptide: PDPMPYEPCLPQYPH
notes: as for B1
On to B9, for which the values for the Kd in experiment [13], in [21] and in experiment [22] were 25.8 ± 5.4 µM, 63.6 ± 6.5 µM and 25.9 µM, respectively.

B10: CT peptide 808-819 (peptide)
peptide: PCLPQYPHINGS
notes: numbers count on: FGFR2IIIb (C1 isoform, 822 residues); also called 808PCLPQYPHINGS819; source: synthetic peptide, bought: Genscript
B10 came in with a Kd in experiment [13] of 255 ± 37.9 µM.

B11: CT peptide 815-822 (peptide)
peptide: HINGSVKT
notes: FGFR2 (IIIb, C1 isoform) C-terminal tail, residues 815-822; numbers count on: FGFR2IIIb (C1 isoform, 822 residues); also called CT^815-822; source: synthetic peptide, bought: Genscript
For the molecule B11, in [13], the Kd was 426 ± 42.5 µM.

B12: CT peptide 808-815 (peptide)
peptide: PCLPQYPH
notes: FGFR2 (IIIb, C1 isoform) C-terminal tail, residues 808-815; numbers count on: FGFR2IIIb (C1 isoform, 822 residues); also called CT^808-815; source: synthetic peptide, bought: Genscript
With B12, the Kd was 291 ± 21.4 µM in experiment [13] and 56.6 ± 5.5 µM in experiment [21].
